# Results: the DeepSol protein solubility set
# Test: soluble on expression in E. coli; label from the status in PepcDB or PDB records
row,Sequence,soluble on expression in E. coli
1,RDLAVAILMDCSRSTEASVGERTVIDTAREALAALAAGIDVAGDRQAIWGFSSLRRDRVFLHLCKRFDEPMGPAVTARIGGLRPGHYTRLGAAIRHASARLNEEAASRKLLLVLTDGKPNDLDHYEGVHGIEDSRMAVREARALSQAVHGVVIDADGQDWFARIFGRAGFTLLPEPARLARALPDLYRSLTQEI,not soluble
2,RELIHFAHGNGFPSLCYKQLLEQLETRFDCCFIDKIGHDPDYPVGENWHNLVAEIIASIKRQAEQPVIAVGHSLGGVLSLLAAIEQPKLFKAVIMLDSPLIGAFKSSMVRLAKALGIIDRVTPAFRTKKRREHWQNYEQLISYLKTRDLFKTFTEECLNDYIKYGLQYKEDGYYLRFDRHVEYQIYRTIPHVIPRYKGKLIVPAALIYGDKSTVVDRMDIRYMKNHFNVKCFKTMGTHLFPMEHPKAVGKQVIEVIDAII,not soluble
3,RGNLGQSQKVLIEFVSANPTGPLHVGHGRGAAFGATLGNVLKAAGYDVTLEYYVNDAGRQMNILAVSVWLRYLELAGEPIVFPANGYKGQYVYEIAQEIWSEQGNQFVHPWISVVENLPADEPEGGDKETYIDAIIARAQSLLGKDGFANFHQHALKTVLDDIKDDLQAFGVRFDSWFSEQSLFEDGSIEKGIQALKDRGHTYEREGALWFRATDFGDEKDRVLVRANGQTTYFASDVAYHWNKYDRGFDRVIDIFGADHHGYVTRIKTAVKALGHDESALDVILVQFAILYRGGDRVQMSTRSGSFVTLRELREEVGNDAARYFYVARKPEQHMDFDLDLAKSESSDNPVYYIQYAHARICSVLRQLKERGLKWDKDMGL,not soluble
4,RGSHHHHHHGSMGDNIVLYYFDARGKAELIRLIFAYLGIEYTDKRFGVNGDAFVEFKNFKKEKDTPFEQVPILQIGDLILAQSQAIVRYLSKKYNICGESELNEFYADMIFCGVQDIHYKFNNTNLFKQNETTFLNEDLPKWSGYFEKLLKKNHTNNNNDKYYFVGNNLTYADLAVFNLYDDIETKYPSSLKNFPLLKAHNEFISNLPNIKNYITNRKESVY,soluble
5,RIAISNSNRTRSVPSLTTIWSISPTPNCSIYETQDANLFLCLTKNGAHVLGTITIKGLKGALREMHDNALSLKLPFDNQGNLLNCALESSTWRYQETNAVASNALTFMPNSTVYPRNKTAHPGNMLIQISPNITFSVVYNEINSGYAFTFKWSAEPGKPFHPPTAVFCYITEQGSHHHHHH,soluble
6,RIEDIETKNIQYEERVSVQADLGSQTLHVRGLIDSGNQLYDPLTKTPVMIIYIDKLEPIFGTAETMIIRNTDPLEAIEQLDDSFRFLDKMRLIPYRGVGQQNQFLLCVKPDHVTIMTKEEMISADKCLIGISTTKLSADGEFDAIIHPKMLSGKAVKHVS,soluble
7,RNFKMIDNLSKVYGVELGYASRIKLLRAVFVNMAAAGASELAIDAGMDLMSMDLAGKVSARAGQGLGVGILTARLGLKAMALLRPLPWYPDRQVKLGTIRKAVVAKVASITMKP,not soluble
8,RRIGKVNLRHNRGFLTPELKRNFLRYTLFYVVASIGSKLSSRLDLFMVSSLDKGGLDSGGIFSIAFYMVAVVEIPSRSLLSVSSPLMADAMKRNDLVKADELFKRVSLHQ,not soluble
9,RRLIRLSDKTIAKSLNTSKFGGDELRRIGFHIRFHRAGALFARCWLLVEGETEVWLFNELARQCGYDLAAEGVQIVEFAQSGLRSLIKVAKEFGIDWHVVTDGDPAGKKYAHTVRAQLGHDQERHRLTELPDRDIEHFLYNHGFELFFKDMIKVPHDHPIPAKKVVNRVLKKHAKPDLALAIVSHCEEKGMECIPVLLRWTLKRIVTMASGNT,not soluble
10,RSGVLITDKPKKKDKKEEPAALQTTVQSMLISRPRELEAEVVRFQNNREKWIAFVGLKDGRPYEIFTGIADDDEGIMVPKSVTHGKIIKNRDENGERHYDFQFCNKKGFKVTIEGLDSKFNPEYWNYAKLISGVLRYGMPIEQVVHLVQGMSLNDESINTWKNGVERALKRYLPNGTTLSGQVCPSCGQETLVYQEGCLLCTSCGASKCG,not soluble
11,RSTMKYIRTLSAEIGILEGGNLDYRITVTGSDEMAVLAKGLDSMRESIRDKISQEAELIRLNQSMITGLSHDLRTPLTALLIYTEILKNEIDADRKQMQKWVLKIDEKAHQIKDMADCILNYSLLKKAAGPTALRQEPFRSVFYDSLSELCVCLEQKGFEVRPSLAWEDREICADSKYITRILDNICSNIIKYASCGDPIRIESFYQTDGCGLVFENKKSANQTQAESTGIGVRNIREMMEEMGGCCEAEETSEDYRIRLTFACSPAV,not soluble
12,RTNQAGLELIGNAEGCRRDPYMCPAGVWTDGIGNTHGVTPGVRKTDQQIAADWEKNILIAERCINQHFRGKDMPDNAFSAMTSAAFNMGCNSLRTYYSKARGMRVETSIHKWAQKGEWVNMCNHLPDFVNSNGVPLRGLKIRREKERQLCLTGLVNEHHHHHH,soluble
13,RYHEFLGHFMNQFTSFGVAGAHGKTSTTGLLSHSMKNITDTSYLIGDGTGRGSANAQYFVFEADEYERHFMPYHPAYSIITNIDFDHPDYFTSIDDVFSAFDDYAKQVQKGLFVYGEDSNLRKITSNAPIYYYGFEENDDFMATDIIRTTTGSNFKVKHDGQIIGEFHVPAYGRHNILNATAVIANLYVAGFDMALVAEHLKTFSGV,not soluble
14,RYTNILVPVDSSDAAQAAFTEAVNIAQRHQANLTALYVVDDSAYHTPALDPVLSELLDAEAAHAKDAMRQRQQFVATTSAPNLKTEISYGIPKHTIEDYAKQHPEIDLIVLGATGTNSPHRVAVGSTTSYVVDHAPCNVIVIR,soluble
15,SAAAALRDQLTALLSSMFSQGLVDEQFQQLQMLQDEGGTPGFVSEVVTLFCDDADRIINEIATLLEQPVVNFDKVDAYVHQLKGSSASVGAQKVKFTCMQFRQFCQDKSRDGCLMALAVVRNDFYDLRNKFQTMLQLEQQIQAYDPKQQ,soluble
16,SAAETRNVAGAEAPPPQKRYYRQRAHSNPMADHTLRYPVKPEEMDWSELYPEFFAPLTQNQSHDDPKDKKEKRAQAQVEFADIGCGYGGLLVELSPLFPDTLILGLEIRVKVSDYVQDRIRALRAAPAGGFQNIACLRSNAMKHLPNFFYKGQLTKMFFLFPDPHFKRTKHKWRIISPTLLAEYAYVLRVGGLVYTITDVLELHDWMCTHFEEHPLFERVPLEDLSEDPVVGHLGTSTEEGKKVLRNGGKNFPAIFRRIQDPVLQAVTSQTSLPGH,soluble
17,SAAIYSLYIINKSGGLIFYKDCGTKGRMDTNDSLRVASLWHSMHAISQQLSPVNGCSGIELLEADTFDLHCFQSLPGTKFFVVCEPGTPHMESLLRYIYELYTDYVLKNPFYEIEMPIRCELFDINLTQAVQSDRVALLGR,soluble
18,SAALTDVQRLQSRVEELERWVYGPGGTRGSRKVADGLVKVQVALGNIASKRERVKILYKKIEDLIKYLDPEYIDRIAIPEASKLQFILAEEQFILSQVALLEQVNALVPVLDSASIKAVPEHAARLQRLAQIHIQQQDQCVAITEESKALLEGYNKTTMLLSKQFVQWDELLCQLEAAKQVKPAEE,soluble
19,SAASGEEDMSELSPAAAPNLDWYEKPEETHAPEVDLETVIPPAQEPSNPAEPFCPRDLVPVVFPGPVSQEDCCQFTCELLKHILYQRHQLPLPYEQLKHFYRKAPQAEDTARKKAWLATEARNRKCQQALAELESVLSHLRDFFARTLVPQVLILLGGNALSPKEFYELDLSRLAPFGVDQGLNTAACLRRLFRAIFLADPFSELQTPPLMGTIVMVQGHRDCGEDWFQPKLNYRVPSRGHKLTVTLSCGRPSVPAMASEDYIWFQAPVTLKGFHE,soluble
20,SADPGPDPESESESVFPREVGLFADSYSEKSQFCFCGHVLTITQNFGSRLGVAARVWDAALSLCNYFESQNVDFRGKKVIELGAGTGIVGILAALQGGDVTITDLPLALEQIQGNVQANVPAGGQAQVRALSWGIDHHVFPANYDLVLGADIVYLEPTFPLLLGTLQHLCRPHGTIYLASKMRKEHGTESFFQHLLPQHFQLELAQRDEDENVNIYRARHREPRPA,not soluble
21,SAEFRVRVSTGEAFGAGTWDKVSVSIVGTRGESPPLPLDNLGKEFTAGAEEDFQVTLPEDVGRVLLLRVHKAPPVLPLLGPLAPDAWFCRWFQLTPPRGGHLLFPCYQWLEGAGTLVLQEGTAKVSWADHHPVLQQQRQEELQARQEMYQWKAYNPGWPHCLDEKTVEDLELNIKYSTAKNANFYLQAGSAFAEMKIKGLLDRKGLWRSLNEMKRIFNFRRTPAAEHAFEHWQEDAFFASQFLNGLNPVLIRRCHYLPKNFPVTDAMVASVLGPGTSLQAELEKGSLFLVDHGILSGIQTNVINGKPQFSAAPMTLLYQSPGCGPLLPLAIQLSQTPGPNSPIFLPTDDKWDWLLAKTWVRNAEFSFHEALTHLLHSHLLPEVFTLATLRQLPHCHPLFKLLIPHTRYTLHINTLARELLIVPGQVVDRSTGIGIEGFSELIQRNMKQLNYSLLCLPEDIRTRGVEDIPGYYYRDDGMQIWGAVEHFVSEIIGIYYPSDESVQDDRELQAWVREIFSKGFLNQESSGIPSSLETREALVQYVTMVIFTCSAKHAAVSAGQFDSCAWMPNLPPSMQLPPPTSKGLATCEGFIATLPPVNATCDVILALWLLSKEPGDQRPLGTYPDEHFTEEAPRRSIATFQSRLAQISRGIQERNRGLVLPYTYLDPPLIENSVSI,soluble
22,SAEGEEEGGDVLISVGHANVLGYTLREFLQLLQHITIGTVLQIKVYRDFINIPEEWQEIYDLIPEAKFPVTSTPKKIELAKDESFTSSDDNENVDLDKRLQYYRYPWSTVHHPARRPISISRDWHGYKKKNHTISVGKDINCDVMIHRDDKKEVRAPSPYWIMVKQDNESSSSSTSSTSDAFWLEDCAQVEEGKAQLVSKVG,soluble
23,SAEHVLTMLNEHEVKFVDLRFTDTKGKEQHVTIPAHQVNAEFFEEGKMFDGSSIGGWKGINESDMVLMPDASTAVIDPFFADSTLIIRCDILEPGTLQGYDRDPRSIAKRAEDYLRATGIADTVLFGPEPEFFLFDDIRFGASISGSHVAIDDIEGAWNSSTKYEGGNKGHRPGVKGGYFPVPPVDSAQDIRSEMCLVMEQMGLVVEAHHHEVATAGQNEVATRFNTMTKKADEIQIYKYVVHNVAHRFGKTATFMPKPMFGDNGSGMHCHMSLAKNGTNLFSGDKYAGLSEQALYYIGGVIKHAKAINALANPTTNSYKRLVPGYEAPVMLAYSARNRSASIRIPVVASPKARRIEVRFPDPAANPYLCFAALLMAGLDGIKNKIHPGEPMDKNLYDLPPEEAKEIPQVAGSLEEALNALDLDREFLKAGGVFTDEAIDAYIALRREEDDRVRMTPHPVEFELYYSV,soluble
24,SAETEALSKLREDFRMQNKSVFILGASGETGRVLLKEILEQGLFSKVTLIGRRKLTFDEEAYKNVNQEVVDFEKLDDYASAFQGHDVGFCCLGTTRGKAGAEGFVRVDRDYVLKSAELAKAGGCKHFNLLSSKGADKSSNFLYLQVKGEVEAKVEELKFDRYSVFRPGVLLCDRQESRPGEWLVRKFFGSLPDSWARGHSVPVVTVVRAMLNNVVRPRDKQMELLENKAIHDLGKAHGSLKP,soluble
25,SAFQAAAARLGAPVSHDFCAISLSDLMTPWEVIEKRIEAAASADFVTAVYNPRSRDRYWQIHRFRELFLRHRSPSTPVGIVRNVTRKDESVVLTTLGEFDPDSLDMFTMMLVGNSTTF,not soluble
26,SAMLSSTMKIEALLTEKHINLNLGSSSKDEVIDTLIAMVADHDKVRDLKQLAEDVRKREREMSTGIGKNIGLPHAKTSAVTEPVLALATLSNEVDFESIDNQPVKIVFLLATPETMLAEHLKLLGRITRLAGRDDVRRKLIDAATPADVLELFKQEERDLPQI,not soluble
